To fix the notation:
B1: Notch1 TM helix-containing fragment, Notch1(1721–1767) [human] / itself (parent)
chain: VQSETVEPPPPAQLHFMYVAAAAFVLLFFVGCGVLLSRKRRRQHGQL
B2: Notch3 TM helix-containing fragment, Notch3(1629–1675) [human] / itself (parent)
chain: VRGEPLEPPEPSVPLLPLLVAGAVLLLVILVLGVMVARRKREHSTLW
B3: Notch2 TM helix-containing fragment, Notch2(1666–1710) [human] / itself (parent)
chain: VVSESLTPERTQLLYLLAVAVVIILFIILLGVIMAKRKRKHGSLW
B4: Notch4 TM helix-containing fragment, Notch4(1432–1481) [human] / itself (parent)
chain: VHPHAGTAPPANQLPWPVLCSPVAGVILLALGALLVLQLIRRRRREHGAL

The variants in one assay derive from B1. Kind of assay: Tango assay. As to conditions: with itself;; read off a plot.
For VQSETVEPPPPAQLHFMYVPPAAFVLLFFVGCGVLLSRKRRRQHGQL [chain 1 A20P A21P], the response (relative activity (C99-WT = 100)) was 130.
The same measure, in the same setting: under VQSETVEPPPPAQLHFMYVAAAAFVLLPPVGCGVLLSRKRRRQHGQL [chain 1 F28P F29P] stands 93.
The same measure, in the same setting: under VQSETVEPPPPAQLHFMYVAAAAFVLLFFPPCGVLLSRKRRRQHGQL [chain 1 V30P G31P] stands 91.

In the next assay the parent is B2. Kind of assay: Tango assay. Particulars: with itself;; read off a plot.
VRGEPLEPPEPSVPLLPLLPPGAVLLLVILVLGVMVARRKREHSTLW [chain 1 V20P A21P]: the response (relative activity (C99-WT = 100)) was determined as 84.
Consider VRGEPLEPPEPSVPLLPLLVAGAVLLLVIPPLGVMVARRKREHSTLW [chain 1 L30P V31P], for which the response (relative activity (C99-WT = 100)) worked out at 91.
On the same count and under the same terms, under VRGEPLEPPEPSVPLLPLLVAGAVLLLPPLVLGVMVARRKREHSTLW [chain 1 V28P I29P] stands 62.

The variants in another assay derive from B3. Kind of assay: Tango assay. As to conditions: with itself;; read off a plot.
For VVSESLTPERTQLLYLLAVAVVIILPPILLGVIMAKRKRKHGSLW [chain 1 F26P I27P], the response (relative activity (C99-WT = 100)) was determined as 46.
On the same count and under the same terms, under VVSESLTPERTQLLYLLAVAVVIILFIPPLGVIMAKRKRKHGSLW [chain 1 I28P L29P] stands 53; under VVSESLTPERTQLLYLLPPAVVIILFIILLGVIMAKRKRKHGSLW [chain 1 A18P V19P], 82.

Variants of B4 are the subject of a further assay. Kind of assay: Tango assay. As to conditions: with itself;; read off a plot.
As to VHPHAGTAPPANQLPWPVLCSPPPGVILLALGALLVLQLIRRRRREHGAL [chain 1 V23P A24P], the response (relative activity (C99-WT = 100)) was 130.
Regarding VHPHAGTAPPANQLPWPVLCSPVAGVILLAPPALLVLQLIRRRRREHGAL [chain 1 L31P G32P], the response (relative activity (C99-WT = 100)) amounted to 93.
For VHPHAGTAPPANQLPWPVLCSPVAGVILLALGPPLVLQLIRRRRREHGAL [chain 1 A33P L34P], the response (relative activity (C99-WT = 100)) amounted to 140.
